Sequences and labels used below:
B1: Elongin-A2 (Homo sapiens), Q8IYF1 (parent)
chain: MAAGSTTLHAVEKLQVRLATKTEPKKLEKYLQKLSALPMTADILAETGIRKTVKRLRKHQHVGDFARDLAARWKKLVLVDRNTRPGPQDPEESASRQRFGEALQDQEKAWGFPENATAPRSPSHSPEHRRTARRTPPGQQRPHPRSHSREPRAERKCPRIAPADSGRYRASPTRTAPLRMPEGPEPAAPGKQPGRGHTHAAQGGPLLCPGCQGQPQGKAVVSHSKGHKSSRQEKRPLCAQGDWHSPTLIREKSCGACLREETPRMPSWASARDRQPSDFKTDKEGGQAGSGQRVPALEEAPDSHQKRPQHSHSNKKRPSLDGRDPGNGTHGLSPEEKEQLSNDRETQEGKPPTAHLDRTSVSSLSEVEEVDMAEEFEQPTLSCEKYLTYDQLRKQKKKTGKSATTALGDKQRKANESKGTRESWDSAKKLPPVQESQSERLQAAGADSAGPKTVPSHVFSELWDLSEAWMQANYDPLSDSDSMTSQAKPEALSSPKFREEAAFPGRRVNAKMPVYSGSRPACQLQVPTLRQQCAQVLRNNPDALSDVGEVPYWVLEPVLEGWRPDQLYRRKKDNHALVRETDELRRNHCFQDFKEEKPQENKTWREQYLRLPDAPEQRLRVMTTNIRSARGNNPNGREAKMICFKSVAKTPYDTSRRQEKSAGDADPENGEIKPASKPAGSSHTPSSQSSSGGGRDSSSSILRWLPEKRANPCLSSSNEHAAPAAKTRKQAAKKVAPLMAKAIRDYKRRFSRR
partner: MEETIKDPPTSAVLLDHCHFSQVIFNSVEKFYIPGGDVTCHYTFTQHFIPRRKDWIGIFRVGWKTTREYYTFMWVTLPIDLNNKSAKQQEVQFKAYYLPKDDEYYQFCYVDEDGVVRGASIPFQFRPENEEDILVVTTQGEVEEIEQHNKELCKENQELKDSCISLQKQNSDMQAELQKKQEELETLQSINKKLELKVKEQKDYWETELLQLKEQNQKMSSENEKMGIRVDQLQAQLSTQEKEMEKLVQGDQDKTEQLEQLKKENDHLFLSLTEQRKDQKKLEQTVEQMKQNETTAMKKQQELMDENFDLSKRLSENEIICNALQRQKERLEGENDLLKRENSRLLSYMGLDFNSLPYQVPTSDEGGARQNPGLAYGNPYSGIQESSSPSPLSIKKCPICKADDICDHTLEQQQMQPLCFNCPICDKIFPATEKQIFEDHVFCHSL
B2: Keratin-associated protein 3-2 (Homo sapiens), Q9BYR7 (parent)
chain: MDCCASRSCSVPTGPATTICSSDKSCRCGVCLPSTCPHTVWLLEPICCDNCPPPCHIPQPCVPTCFLLNSCQPTPGLETLNLTTFTQPCCEPCLPRGC
partner: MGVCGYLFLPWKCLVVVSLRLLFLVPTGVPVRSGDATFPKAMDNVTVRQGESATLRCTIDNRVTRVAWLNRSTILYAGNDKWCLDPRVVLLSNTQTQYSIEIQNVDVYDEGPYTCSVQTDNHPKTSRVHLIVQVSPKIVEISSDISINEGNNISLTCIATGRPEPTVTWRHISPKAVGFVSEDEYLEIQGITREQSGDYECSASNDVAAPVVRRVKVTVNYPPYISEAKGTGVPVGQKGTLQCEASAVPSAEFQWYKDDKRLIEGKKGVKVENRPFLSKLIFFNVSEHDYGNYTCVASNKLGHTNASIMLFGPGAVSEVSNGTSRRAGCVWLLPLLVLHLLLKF
B3: DCC-interacting protein 13-alpha (Homo sapiens), Q9UKG1 (parent)
chain: MPGIDKLPIEETLEDSPQTRSLLGVFEEDATAISNYMNQLYQAMHRIYDAQNELSAATHLTSKLLKEYEKQRFPLGGDDEVMSSTLQQFSKVIDELSSCHAVLSTQLADAMMFPITQFKERDLKEILTLKEVFQIASNDHDAAINRYSRLSKKRENDKVKYEVTEDVYTSRKKQHQTMMHYFCALNTLQYKKKIALLEPLLGYMQAQISFFKMGSENLNEQLEEFLANIGTSVQNVRREMDSDIETMQQTIEDLEVASDPLYVPDPDPTKFPVNRNLTRKAGYLNARNKTGLVSSTWDRQFYFTQGGNLMSQARGDVAGGLAMDIDNCSVMAVDCEDRRYCFQITSFDGKKSSILQAESKKDHEEWICTINNISKQIYLSENPEETAARVNQSALEAVTPSPSFQQRHESLRPAAGQSRPPTARTSSSGSLGSESTNLAALSLDSLVAPDTPIQFDIISPVCEDQPGQAKAFGQGGRRTNPFGESGGSTKSETEDSILHQLFIVRFLGSMEVKSDDHPDVVYETMRQILAARAIHNIFRMTESHLLVTCDCLKLIDPQTQVTRLTFPLPCVVLYATHQENKRLFGFVLRTSSGRSESNLSSVCYIFESNNEGEKICDSVGLAKQIALHAELDRRASEKQKEIERVKEKQQKELNKQKQIEKDLEEQSRLIAASSRPNQASSEGQFVVLSSSQSEESDLGEGGKKRESEA
partner: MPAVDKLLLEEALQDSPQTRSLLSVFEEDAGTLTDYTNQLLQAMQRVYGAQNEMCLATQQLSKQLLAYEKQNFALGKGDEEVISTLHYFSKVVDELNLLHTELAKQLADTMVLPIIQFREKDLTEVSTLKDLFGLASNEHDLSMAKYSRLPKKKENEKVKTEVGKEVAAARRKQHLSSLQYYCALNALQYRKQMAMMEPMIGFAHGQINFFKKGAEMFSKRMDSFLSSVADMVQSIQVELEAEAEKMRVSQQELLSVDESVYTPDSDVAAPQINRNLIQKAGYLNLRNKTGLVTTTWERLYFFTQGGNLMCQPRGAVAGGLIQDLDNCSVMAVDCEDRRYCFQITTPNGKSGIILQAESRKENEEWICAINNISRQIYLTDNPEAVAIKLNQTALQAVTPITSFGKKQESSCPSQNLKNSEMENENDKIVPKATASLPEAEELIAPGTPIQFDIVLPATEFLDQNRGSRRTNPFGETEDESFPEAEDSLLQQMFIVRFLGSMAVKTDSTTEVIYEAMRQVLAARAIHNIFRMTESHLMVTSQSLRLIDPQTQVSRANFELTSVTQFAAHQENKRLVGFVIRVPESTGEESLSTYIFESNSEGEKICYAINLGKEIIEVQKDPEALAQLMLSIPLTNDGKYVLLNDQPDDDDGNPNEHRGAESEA
B4: Nuclear autoantigen Sp-100 (Homo sapiens), P23497 (parent)
chain: MAGGGGDLSTRRLNECISPVANEMNHLPAHSHDLQRMFTEDQGVDDRLLYDIVFKHFKRNKVEISNAIKKTFPFLEGLRDRDLITNKMFEDSQDSCRNLVPVQRVVYNVLSELEKTFNLPVLEALFSDVNMQEYPDLIHIYKGFENVIHDKLPLQESEEEEREERSGLQLSLEQGTGENSFRSLTWPPSGSPSHAGTTPPENGLSEHPCETEQINAKRKDTTSDKDDSLGSQQTNEQCAQKAEPTESCEQIAVQVNNGDAGREMPCPLPCDEESPEAELHNHGIQINSCSVRLVDIKKEKPFSNSKVECQAQARTHHNQASDIIVISSEDSEGSTDVDEPLEVFISAPRSEPVINNDNPLESNDEKEGQEATCSRPQIVPEPMDFRKLSTFRESFKKRVIGQDHDFSESSEEEAPAEASSGALRSKHGEKAPMTSRSTSTWRIPSRKRRFSSSDFSDLSNGEELQETCSSSLRRGSGSQPQEPENKKCSCVMCFPKGVPRSQEARTESSQASDMMDTMDVENNSTLEKHSGKRRKKRRHRSKVNGLQRGRKKDRPRKHLTLNNKVQKKRWQQRGRKANTRPLKRRRKRGPRIPKDENINFKQSELPVTCGEVKGTLYKERFKQGTSKKCIQSEDKKWFTPREFEIEGDRGASKNWKLSIRCGGYTLKVLMENKFLPEPPSTRKKRILESHNNTLVDPCEEHKKKNPDASVKFSEFLKKCSETWKTIFAKEKGKFEDMAKADKAHYEREMKTYIPPKGEKKKKFKDPNAPKRPPLAFFLFCSEYRPKIKGEHPGLSIDDVVKKLAGMWNNTAAADKQFYEKKAAKLKEKYKKDIAAYRAKGKPNSAKKRVVKAEKSKKKKEEEEDEEDEQEEENEEDDDK
partner: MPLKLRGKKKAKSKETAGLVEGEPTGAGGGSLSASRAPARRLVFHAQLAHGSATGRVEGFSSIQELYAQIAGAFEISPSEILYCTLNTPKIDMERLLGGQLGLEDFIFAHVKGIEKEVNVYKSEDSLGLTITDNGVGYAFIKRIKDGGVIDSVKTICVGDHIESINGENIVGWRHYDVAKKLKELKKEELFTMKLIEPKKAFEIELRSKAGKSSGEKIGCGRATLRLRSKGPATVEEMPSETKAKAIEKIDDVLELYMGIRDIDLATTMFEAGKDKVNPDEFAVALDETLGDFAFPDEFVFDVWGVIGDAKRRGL
B5: Notch homolog 2 N-terminal-like protein A (Homo sapiens), Q7Z3S9 (parent)
chain: MCVTYHNGTGYCKCPEGFLGEYCQHRDPCEKNRCQNGGTCVAQAMLGKATCRCASGFTGEDCQYSTSHPCFVSRPCLNGGTCHMLSRDTYECTCQVGFTGKECQWTDACLSHPCANGSTCTTVANQFSCKCLTGFTGQKCETDVNECDIPGHCQHGGTCLNLPGSYQCQCLQGFTGQYCDSLYVPCAPSPCVNGGTCRQTGDFTFECNCLPETVRRGTELWERDREVWNGKEHDEN
partner: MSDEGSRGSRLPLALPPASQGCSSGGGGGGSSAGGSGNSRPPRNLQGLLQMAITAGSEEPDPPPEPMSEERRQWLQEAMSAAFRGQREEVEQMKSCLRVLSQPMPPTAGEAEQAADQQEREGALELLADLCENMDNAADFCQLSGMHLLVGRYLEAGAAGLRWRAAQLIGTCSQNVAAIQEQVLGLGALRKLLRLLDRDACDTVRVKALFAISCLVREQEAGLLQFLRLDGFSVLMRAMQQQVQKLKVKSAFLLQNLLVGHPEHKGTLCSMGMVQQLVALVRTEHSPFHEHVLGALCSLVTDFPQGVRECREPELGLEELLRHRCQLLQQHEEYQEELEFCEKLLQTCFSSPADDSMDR

Data on eleven variants can be found in IntAct's records for PubMed 31515488.

The variants in one experiment derive from B1. Particulars: with caco2_human CALCOCO2, Q13137.
With D302H, the “effect of a mutation on the interaction” value is listed as “with no effect”.

As for G505R, the “effect of a mutation on the interaction” value is given as “disrupting interaction strength”.

On to R498Q, for which the “effect of a mutation on the interaction” value is reported as “with no effect”.

As for C254F, the “effect of a mutation on the interaction” value is given as “with no effect”.

As for R179P, the “effect of a mutation on the interaction” value is given as “with no effect”.

A further experiment covers variants of B2. Particulars: with ntri_human NTM.
As for S8G, the “effect of a mutation on the interaction” value was “with no effect”.

For the variant R27C, the “effect of a mutation on the interaction” value was “with no effect”.

Variants of B3 are the subject of a further experiment. Particulars: with dp13b_human APPL2, Q8NEU8.
Consider E643Q, for which the “effect of a mutation on the interaction” value is reported as “with no effect”.

On to E67G, for which the “effect of a mutation on the interaction” value was “with no effect”.

The variants in the next experiment derive from B4. Particulars: with gipc2_human GIPC2, Q8TF65.
For the variant M433V, the “effect of a mutation on the interaction” value is “with no effect”.

Variants of B5 are the subject of the next experiment. Particulars: with hpbp1_human HSPBP1, Q9NZL4.
Consider A115T, for which the “effect of a mutation on the interaction” value is “with no effect”.
